# Data taken from the supplement of paper PMC7877785.
# ± gives the uncertainty stated by the source.
# Assay: self-splicing fitness, log relative to wild type (ln ratio); higher = more splicing; Tetrahymena group I intron in knt gene, E. coli kanamycin selection, DiMSum; sequences stand for … in CUCUCU…GGAGGGAAAAGUUAUCAGGCAUGCACCUGGUAGCUAGUCUUUAAACCAAUAGAUUGCAUCGGUUUAAAAGGCAAGACCGUCAAAUUGCGGGAAAGGGGUCAACAGCCGUUCAGUACCAAGUCUCAGGGGAAACUUUGAGAUGGCCUUGCAAAGGGUAUGGUAAUAAGCUGACGGACAUGGUCCUAACCACGCAGCCAAGUCCUAAGUCAACAGAUCUUCUGUUGAUAUGGAUGCAGUUCACAGACUAAAUGUCGGUCGGGGAAGAUGUAUUCUUCUCAUAAGAUAUAGUCGGACCUCUCCUUAAUGGGAGCUAGCGGAUGAAGUGAUGCAACACUGGAGCCGCUGGGAACUAAUUUGUAUGCGAAAGUAUAUUGAUUAGUUUUGGAGUACUCGUGGUCG
# How it was run: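 Pooled colonies went to amplicon sequencing on an Illumina HiSeq 2500 after six replicate transformations. The plates were LB agar with 100 μg/mL carbenicillin, 50 μM IPTG and 0.2% rhamnose, with or without 25 μg/mL kanamycin, incubated overnight at 37°C or 30°C. The E. coli BL21(DE3) library had all eight P1ex-region intron nucleotides randomised, the intron placed in the knt kanamycin-resistance gene on pET-22b(+). DiMSum fitness is the error-weighted combination of replicate fold changes, kanamycin against none, normalised to wild type.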
Sequence,self-splicing fitness (ln) (30 °C),self-splicing fitness (ln) (37 °C)
AUUUAGCAAUAUUACGCGAU,-3.22 ± 0.33,-2.49 ± 0.48
AUUUAGCAAUAUUACGCGCA,-0.312 ± 0.13,-0.00399 ± 0.16
AUUUAGCAAUAUUACGCGUU,-2.01 ± 0.2,-1.3 ± 0.19
AUUUAGCAAUAUUACGGCAA,-1.05 ± 0.16,-0.726 ± 0.17
AUUUAGCAAUAUUACGGCGU,-0.211 ± 0.11,0.269 ± 0.13
AUUUAGCAAUAUUACGUAAU,-0.35 ± 0.082,-0.32 ± 0.12
AUUUAGCAAUAUUACGUCCC,-0.0323 ± 0.37,-0.682 ± 0.42
AUUUAGCAAUAUUACGUGGA,-3.25 ± 0.21,-2.04 ± 0.16
AUUUAGCAAUAUUACGUUGA,-1.32 ± 0.2,-2.27 ± 0.26
CAAAAGCAAUAUUACGAAAC,-4.17 ± 0.39,-3.75 ± 0.33
CAAAAGCAAUAUUACGAAUG,-1.18 ± 0.057,-0.723 ± 0.076
CAAAAGCAAUAUUACGAGAC,-3.62 ± 0.39,-2.36 ± 0.21
CAAAAGCAAUAUUACGAGCA,-2.5 ± 0.14,-1.97 ± 0.14
CAAAAGCAAUAUUACGAUUU,-1.18 ± 0.061,-0.732 ± 0.075
CAAAAGCAAUAUUACGCAAA,-2.48 ± 0.14,-1.76 ± 0.17
CAAAAGCAAUAUUACGCAUG,-3.93 ± 0.19,-0.824 ± 0.15
CAAAAGCAAUAUUACGCCCU,-2.13 ± 0.17,-0.434 ± 0.17
CAAAAGCAAUAUUACGCGAU,-4 ± 0.3,-1.78 ± 0.23
CAAAAGCAAUAUUACGCGUU,-3.91 ± 0.17,-2.74 ± 0.13
CAAAAGCAAUAUUACGCUGG,-2.88 ± 0.19,-1.9 ± 0.17
CAAAAGCAAUAUUACGGCUC,-1.56 ± 0.12,0.0316 ± 0.14
CAAAAGCAAUAUUACGGGCA,-2.88 ± 0.16,-1.99 ± 0.14
CAAAAGCAAUAUUACGGGCU,-3.65 ± 0.23,-2.57 ± 0.21
CAAAAGCAAUAUUACGUAGC,-3.1 ± 0.13,-2.61 ± 0.24

Sequence,self-splicing fitness (ln) (30 °C),self-splicing fitness (ln) (37 °C)
CAAAAGCAAUAUUACGUAUG,-2.89 ± 0.098,-2.22 ± 0.13
CAAAAGCAAUAUUACGUCAA,-3.34 ± 0.11,-2.86 ± 0.12
CAAAAGCAAUAUUACGUCCA,-1.7 ± 0.18,-2.05 ± 0.16
CAAAAGCAAUAUUACGUCCC,-2.65 ± 0.26,-2.26 ± 0.42
CAAAAGCAAUAUUACGUCGU,-3.83 ± 0.12,-1.54 ± 0.1
CAAAAGCAAUAUUACGUGAU,-3.62 ± 0.11,-2.41 ± 0.12
CAAAAGCAAUAUUACGUGCA,-2.95 ± 0.12,-1.96 ± 0.12
CAAAAGCAAUAUUACGUGGA,-3.4 ± 0.14,-2 ± 0.096
CAAAAGCAAUAUUACGUGUG,-2.48 ± 0.055,-1.09 ± 0.059
CAAAAGCAAUAUUACGUUGA,-3.14 ± 0.14,-2.32 ± 0.12
CAACAGCAAUAUUACGACUG,-0.232 ± 0.052,0.0876 ± 0.072
CAACAGCAAUAUUACGAUAU,-4 ± 0.15,-2.2 ± 0.13
CAACAGCAAUAUUACGAUGA,-1.53 ± 0.12,-0.678 ± 0.089
CAACAGCAAUAUUACGAUUU,-0.837 ± 0.067,-0.69 ± 0.083
CAACAGCAAUAUUACGCAAA,-3.57 ± 0.33,-2.37 ± 0.14
CAACAGCAAUAUUACGCAGC,-4.4 ± 0.25,-2.75 ± 0.29
CAACAGCAAUAUUACGCCAA,-2.36 ± 0.14,-1.62 ± 0.14
CAACAGCAAUAUUACGCCCA,-0.825 ± 0.097,-1.04 ± 0.1
CAACAGCAAUAUUACGCCGU,-4.14 ± 0.29,-2.82 ± 0.38
CAACAGCAAUAUUACGCGGU,-2.36 ± 0.12,-2.88 ± 0.28
CAACAGCAAUAUUACGCUUC,-3.83 ± 0.24,-2.18 ± 0.2
CAACAGCAAUAUUACGGACU,-2.52 ± 0.11,-1.33 ± 0.14
CAACAGCAAUAUUACGGAUC,-3.08 ± 0.12,-1.89 ± 0.12
CAACAGCAAUAUUACGGCCU,-3.63 ± 0.16,-1.3 ± 0.12

Sequence,self-splicing fitness (ln) (30 °C),self-splicing fitness (ln) (37 °C)
CAACAGCAAUAUUACGGCUU,-1.88 ± 0.082,-0.875 ± 0.087
CAACAGCAAUAUUACGGGCA,-2.61 ± 0.1,-1.9 ± 0.12
CAACAGCAAUAUUACGGGCU,-3.65 ± 0.13,-2.66 ± 0.14
CAACAGCAAUAUUACGUCAA,-3.49 ± 0.13,-2.08 ± 0.1
CAACAGCAAUAUUACGUCAC,-3.96 ± 0.24,-2.26 ± 0.18
CAACAGCAAUAUUACGUCCG,-0.0787 ± 0.06,0.513 ± 0.076
CAACAGCAAUAUUACGUGGG,-3.25 ± 0.096,-1.11 ± 0.075
CAACAGCAAUAUUACGUGUG,-3.55 ± 0.14,-2.32 ± 0.11
CAACAGCAAUAUUACGUUAG,-2.13 ± 0.076,-1.52 ± 0.089
CAACAGCAAUAUUACGUUCU,-1.32 ± 0.073,-0.92 ± 0.094
CAACAGCAAUAUUACGUUGC,-4.78 ± 0.36,-1.54 ± 0.14
CAAGAGCAAUAUUACGAACG,-0.336 ± 0.063,0.335 ± 0.079
CAAGAGCAAUAUUACGAGCA,-2.85 ± 0.28,-2.63 ± 0.38
CAAGAGCAAUAUUACGAGUG,-1.46 ± 0.089,-1.23 ± 0.12
CAAGAGCAAUAUUACGAUAU,-3.3 ± 0.29,-2.7 ± 0.3
CAAGAGCAAUAUUACGCAUU,-3.39 ± 0.27,-2.51 ± 0.21
CAAGAGCAAUAUUACGCCCG,-1.84 ± 0.2,-1.03 ± 0.22
CAAGAGCAAUAUUACGCCGU,-1.59 ± 0.47,
CAAGAGCAAUAUUACGCGCG,-1.47 ± 0.093,-0.891 ± 0.13
CAAGAGCAAUAUUACGCGCU,-3.72 ± 0.4,-2.34 ± 0.33
CAAGAGCAAUAUUACGCUGA,-2.97 ± 0.19,-2.08 ± 0.21
CAAGAGCAAUAUUACGCUGU,-3.93 ± 0.36,-2.34 ± 0.24
CAAGAGCAAUAUUACGCUUC,-3.61 ± 0.37,-2.23 ± 0.43
CAAGAGCAAUAUUACGGAAC,-3.74 ± 0.17,-2.52 ± 0.19

Sequence,self-splicing fitness (ln) (30 °C),self-splicing fitness (ln) (37 °C)
CAAGAGCAAUAUUACGGCAG,-1.54 ± 0.091,-0.926 ± 0.13
CAAGAGCAAUAUUACGGCUC,-3.78 ± 0.24,-2.27 ± 0.32
CAAGAGCAAUAUUACGGGAG,-2.35 ± 0.11,-1.8 ± 0.12
CAAGAGCAAUAUUACGGGGC,-1.99 ± 0.14,-3.02 ± 0.25
CAAGAGCAAUAUUACGUAGC,,-1.86 ± 0.43
CAAGAGCAAUAUUACGUGAA,-3.89 ± 0.22,-2.75 ± 0.23
CAAGAGCAAUAUUACGUGCC,-3.59 ± 0.32,-3.51 ± 0.39
CAAGAGCAAUAUUACGUGCG,-1.17 ± 0.074,0.135 ± 0.09
CAAGAGCAAUAUUACGUGGC,-3.77 ± 0.2,-3.41 ± 0.28
CAAGAGCAAUAUUACGUGUC,-4.19 ± 0.2,-3.11 ± 0.2
CAAUAGCAAUAUUACGAAAC,,-1.35 ± 0.24
CAAUAGCAAUAUUACGAAAG,-1.47 ± 0.082,-0.294 ± 0.13
CAAUAGCAAUAUUACGAACC,-2.22 ± 0.35,
CAAUAGCAAUAUUACGAACG,-0.128 ± 0.053,0.24 ± 0.07
CAAUAGCAAUAUUACGAACU,-3.14 ± 0.27,-1.83 ± 0.18
CAAUAGCAAUAUUACGAAGC,-3.01 ± 0.32,-2.73 ± 0.32
CAAUAGCAAUAUUACGACAA,-3.42 ± 0.18,-2.07 ± 0.15
CAAUAGCAAUAUUACGAGUG,-0.279 ± 0.079,-0.905 ± 0.11
CAAUAGCAAUAUUACGAUCU,-3.45 ± 0.22,-1.91 ± 0.21
CAAUAGCAAUAUUACGAUGA,-2.26 ± 0.18,-1.54 ± 0.23
CAAUAGCAAUAUUACGAUGU,-3.19 ± 0.14,-2.32 ± 0.2
CAAUAGCAAUAUUACGCACG,-1.01 ± 0.19,-1.12 ± 0.17
CAAUAGCAAUAUUACGCAGG,-1.75 ± 0.13,-0.433 ± 0.11
CAAUAGCAAUAUUACGCCGG,0.0303 ± 0.12,0.077 ± 0.15
